Values of other authors as cited in patent publication US20170173060A1, “ACTIVATION OF THE ENDOGENOUS ILEAL BRAKE HORMONE PATHWAY FOR ORGAN REGENERATION AND RELATED COMPOSITIONS, METHODS OF TREATMENT, DIAGNOSTICS, AND REGULATORY SYSTEMS” (VOLANT HOLDINGS GMBH, priority 2014, published 2017).

Experiments:
[1] = tested on: MIN-6 cells; conditions: immunoprecipitation and western blotting
[2] = tested on: severely streptozotocin-diabetic rats; conditions: rat, in vivo

Molecule | phosphorylation of EGF receptors (ErbBs) [1] | glucose tolerance [2]
Betacellulin (protein, UniProt P35070 32-111, looked up, Betacellulin, member of the epidermal growth factor family) Betacellulin: DGNSTRSPETNGLLCGDPEENCAATTTQSKRKGHFSRCPKQYKHYCIKGRCRFVVAEQTPSCVCDEGYIGARCERVDLFY | induced phosphorylation of only ErbB-1 and ErbB-2 | 
EGF (protein, UniProt P01133 23-1207, looked up, Pro-epidermal growth factor) Pro-epidermal growth factor: PQHWSCPEGTLAGNGNSTCVGPAPFLIFSHGNSIFRIDTEGTNYEQLVVDAGVSVIMDFHYNEKRIYWVDLERQLLQRVFLNGSRQERVCNIEKNVSGMAINWINEEVIWSNQQEGIITVTDMKGNNSHILLSALKYPANVAVDPVERFIFWSSEVAGSLYRADLDGVGVKALLETSEKITAVSLDVLDKRLFWIQYNREGSNSLICSCDYDGGSVHISKHPTQHNLFAMSLFGDRIFYSTWKMKTIWIANKHTGKDMVRINLHSSFVPLGELKVVHPLAQPKAEDDTWEPEQKLCKLRKGNCSSTVCGQDLQSHLCMCAEGYALSRDRKYCEDVNECAFWNHGCTLGCKNTPGSYYCTCPVGFVLLPDGKRCHQLVSCPRNVSECSHDCVLTSEGPLCFCPEGSVLERDGKTCSGCSSPDNGGCSQLCVPLSPVSWECDCFPGYDLQLDEKSCAASGPQPFLLFANSQDIRHMHFDGTDYGTLLSQQMGMVYALDHDPVENKIYFAHTALKWIERANMDGSQRERLIEEGVDVPEGLAVDWIGRRFYWTDRGKSLIGRSDLNGKRSKIITKENISQPRGIAVHPMAKRLFWTDTGINPRIESSSLQGLGRLVIASSDLIWPSGITIDFLTDKLYWCDAKQSVIEMANLDGSKRRRLTQNDVGHPFAVAVFEDYVWFSDWAMPSVMRVNKRTGKDRVRLQGSMLKPSSLVVVHPLAKPGADPCLYQNGGCEHICKKRLGTAWCSCREGFMKASDGKTCLALDGHQLLAGGEVDLKNQVTPLDILSKTRVSEDNITESQHMLVAEIMVSDQDDCAPVGCSMYARCISEGEDATCQCLKGFAGDGKLCSDIDECEMGVPVCPPASSKCINTEGGYVCRCSEGYQGDGIHCLDIDECQLGEHSCGENASCTNTEGGYTCMCAGRLSEPGLICPDSTPPPHLREDDHHYSVRNSDSECPLSHDGYCLHDGVCMYIEALDKYACNCVVGYIGERCQYRDLKWWELRHAGHGQQQKVIVVAVCVVVLVMLLLLSLWGAHYYRTQKLLSKNPKNPYEESSRDVRSRRPADTEDGMSSCPQPWFVVIKEHQDLKNGGQPVAGEDGQAADGSMQPTSWRQEPQLCGMGTEQGCWIPVSSDKGSCPQVMERSFHMPSYGTQTLEGGVEKPHSLLSANPLWQQRALDPPHQMELTQ |  | neither gastrin nor EGF alone improved glucose tolerance
